In IntAct's records for PubMed 31515488:

B1: Fanconi anemia group G protein (Homo sapiens), O15287 (parent)
chain: MSRQTTSVGSSCLDLWREKNDRLVRQAKVAQNSGLTLRRQQLAQDALEGLRGLLHSLQGLPAAVPVLPLELTVTCNFIILRASLAQGFTEDQAQDIQRSLERVLETQEQQGPRLEQGLRELWDSVLRASCLLPELLSALHRLVGLQAALWLSADRLGDLALLLETLNGSQSGASKDLLLLLKTWSPPAEELDAPLTLQDAQGLKDVLLTAFAYRQGLQELITGNPDKALSSLHEAASGLCPRPVLVQVYTALGSCHRKMGNPQRALLYLVAALKEGSAWGPPLLEASRLYQQLGDTTAELESLELLVEALNVPCSSKAPQFLIEVELLLPPPDLASPLHCGTQSQTKHILASRCLQTGRAGDAAEHYLDLLALLLDSSEPRFSPPPSPPGPCMPEVFLEAAVALIQAGRAQDALTLCEELLSRTSSLLPKMSRLWEDARKGTKELPYCPLWVSATHLLQGQAWVQLGAQKVAISEFSRCLELLFRATPEEKEQGAAFNCEQGCKSDAALQQLRAAALISRGLEWVASGQDTKALQDFLLSVQMCPGNRDTYFHLLQTLKRLDRRDEATALWWRLEAQTKGSHEDALWSLPLYLESYLSWIRPSDRDAFLEEFRTSLPKSCDL
partner: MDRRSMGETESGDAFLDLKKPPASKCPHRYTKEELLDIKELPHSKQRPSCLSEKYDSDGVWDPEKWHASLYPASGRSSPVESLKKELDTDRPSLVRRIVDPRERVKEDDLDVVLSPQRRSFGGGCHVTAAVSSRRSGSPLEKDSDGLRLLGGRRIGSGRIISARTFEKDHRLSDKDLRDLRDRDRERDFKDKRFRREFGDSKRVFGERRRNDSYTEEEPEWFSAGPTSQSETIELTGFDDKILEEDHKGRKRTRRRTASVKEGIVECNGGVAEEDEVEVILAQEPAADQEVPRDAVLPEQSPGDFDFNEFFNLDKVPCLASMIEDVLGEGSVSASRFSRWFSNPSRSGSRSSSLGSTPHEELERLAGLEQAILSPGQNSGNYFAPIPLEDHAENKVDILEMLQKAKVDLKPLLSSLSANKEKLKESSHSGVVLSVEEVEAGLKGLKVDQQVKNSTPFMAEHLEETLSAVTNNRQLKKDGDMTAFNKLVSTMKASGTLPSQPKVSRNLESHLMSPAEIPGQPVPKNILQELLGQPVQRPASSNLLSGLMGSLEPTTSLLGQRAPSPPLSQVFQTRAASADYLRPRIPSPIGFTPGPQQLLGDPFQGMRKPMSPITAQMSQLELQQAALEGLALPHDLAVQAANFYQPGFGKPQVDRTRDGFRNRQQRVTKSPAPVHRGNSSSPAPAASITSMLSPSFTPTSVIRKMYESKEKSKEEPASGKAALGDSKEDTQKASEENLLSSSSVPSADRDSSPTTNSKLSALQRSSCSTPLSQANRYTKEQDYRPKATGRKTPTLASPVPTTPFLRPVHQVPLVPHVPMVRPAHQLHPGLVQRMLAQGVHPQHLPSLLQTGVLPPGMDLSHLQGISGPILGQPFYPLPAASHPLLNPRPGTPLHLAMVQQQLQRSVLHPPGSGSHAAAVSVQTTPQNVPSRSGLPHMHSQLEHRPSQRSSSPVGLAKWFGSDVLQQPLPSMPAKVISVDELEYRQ
B2: Fas-activated serine/threonine kinase (Homo sapiens), Q14296-1 (parent)
chain: MRRPRGEPGPRAPRPTEGATCAGPGESWSPSPNSMLRVLLSAQTSPARLSGLLLIPPVQPCCLGPSKWGDRPVGGGPSAGPVQGLQRLLEQAKSPGELLRWLGQNPSKVRAHHYSVALRRLGQLLGSRPRPPPVEQVTLQDLSQLIIRNCPSFDIHTIHVCLHLAVLLGFPSDGPLVCALEQERRLRLPPKPPPPLQPLLRGGQGLEAALSCPRFLRYPRQHLISSLAEARPEELTPHVMVLLAQHLARHRLREPQLLEAIAHFLVVQETQLSSKVVQKLVLPFGRLNYLPLEQQFMPCLERILAREAGVAPLATVNILMSLCQLRCLPFRALHFVFSPGFINYISGTPHALIVRRYLSLLDTAVELELPGYRGPRLPRRQQVPIFPQPLITDRARCKYSHKDIVAEGLRQLLGEEKYRQDLTVPPGYCTDFLLCASSSGAVLPVRTQDPFLPYPPRSCPQGQAASSATTRDPAQRVVLVLRERWHFCRDGRVLLGSRALRERHLGLMGYQLLPLPFEELESQRGLPQLKSYLRQKLQALGLRWGPEGG
partner: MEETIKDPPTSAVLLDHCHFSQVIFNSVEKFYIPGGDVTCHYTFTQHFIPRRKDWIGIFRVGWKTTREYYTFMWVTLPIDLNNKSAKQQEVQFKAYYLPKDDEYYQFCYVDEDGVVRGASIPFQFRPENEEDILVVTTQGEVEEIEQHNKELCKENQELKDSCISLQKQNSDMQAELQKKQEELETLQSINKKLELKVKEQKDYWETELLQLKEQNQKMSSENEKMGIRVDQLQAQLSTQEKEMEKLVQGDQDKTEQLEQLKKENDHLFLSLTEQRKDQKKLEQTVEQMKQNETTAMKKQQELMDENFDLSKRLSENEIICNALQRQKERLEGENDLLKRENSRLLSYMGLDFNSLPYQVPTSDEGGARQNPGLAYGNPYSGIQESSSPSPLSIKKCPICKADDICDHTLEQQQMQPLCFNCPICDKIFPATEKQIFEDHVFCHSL
B3: E3 ubiquitin-protein ligase TRIM32 (Homo sapiens), Q13049 (parent)
chain: MAAAAASHLNLDALREVLECPICMESFTEEQLRPKLLHCGHTICRQCLEKLLASSINGVRCPFCSKITRITSLTQLTDNLTVLKIIDTAGLSEAVGLLMCRSCGRRLPRQFCRSCGLVLCEPCREADHQPPGHCTLPVKEAAEERRRDFGEKLTRLRELMGELQRRKAALEGVSKDLQARYKAVLQEYGHEERRVQDELARSRKFFTGSLAEVEKSNSQVVEEQSYLLNIAEVQAVSRCDYFLAKIKQADVALLEETADEEEPELTASLPRELTLQDVELLKVGHVGPLQIGQAVKKPRTVNVEDSWAMEATASAASTSVTFREMDMSPEEVVASPRASPAKQRGPEAASNIQQCLFLKKMGAKGSTPGMFNLPVSLYVTSQGEVLVADRGNYRIQVFTRKGFLKEIRRSPSGIDSFVLSFLGADLPNLTPLSVAMNCQGLIGVTDSYDNSLKVYTLDGHCVACHRSQLSKPWGITALPSGQFVVTDVEGGKLWCFTVDRGSGVVKYSCLCSAVRPKFVTCDAEGTVYFTQGLGLNLENRQNEHHLEGGFSIGSVGPDGQLGRQISHFFSENEDFRCIAGMCVDARGDLIVADSSRKEILHFPKGGGYSVLIREGLTCPVGIALTPKGQLLVLDCWDHCIKIYSYHLRRYSTP

Variants of: B1
Conditions: with 4et_human EIF4ENIF1, Q9NRA8

effect of a mutation on the interaction	Variant
with no effect	T297I
with no effect	S7F

Variants of: B2
Conditions: with caco2_human CALCOCO2, Q13137

effect of a mutation on the interaction	Variant
with no effect	V424L

Variants of: B3
Conditions: with abi2_human ABI2, Q9NYB9
Chain of abi2_human ABI2, Q9NYB9 (Q9NYB9 whole entry): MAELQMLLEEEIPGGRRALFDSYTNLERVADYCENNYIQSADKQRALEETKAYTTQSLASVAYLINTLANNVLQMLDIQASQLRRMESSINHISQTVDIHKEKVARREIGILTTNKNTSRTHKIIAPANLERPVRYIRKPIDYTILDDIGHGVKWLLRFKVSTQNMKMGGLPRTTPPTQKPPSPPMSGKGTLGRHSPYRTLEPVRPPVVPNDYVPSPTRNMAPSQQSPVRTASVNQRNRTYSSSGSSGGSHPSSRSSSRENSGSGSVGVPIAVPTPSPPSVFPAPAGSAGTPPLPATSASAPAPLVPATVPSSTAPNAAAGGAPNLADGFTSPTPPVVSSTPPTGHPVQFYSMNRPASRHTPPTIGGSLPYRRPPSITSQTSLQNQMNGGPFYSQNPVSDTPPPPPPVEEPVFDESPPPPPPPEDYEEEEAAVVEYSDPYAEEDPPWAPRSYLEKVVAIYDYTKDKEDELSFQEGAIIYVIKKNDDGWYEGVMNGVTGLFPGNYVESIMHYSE

effect of a mutation on the interaction	Variant
disrupting interaction strength	E547A

Variants of: B3
Conditions: with pde9a_human PDE9A

effect of a mutation on the interaction	Variant
disrupting interaction strength	E547A

Variants of: B3
Conditions: with sdcb1_human SDCBP

effect of a mutation on the interaction	Variant
disrupting interaction strength	E547A
